Consider 1 substance from US20040131585A1.

The target of this assay is human CXCR4 on intravenously injected human CD34+ angioblasts (human) (UniProt P61073). The assay can be described thus: cell-based or functional assay.
Sequence of UniProt P61073 (P61073 whole entry): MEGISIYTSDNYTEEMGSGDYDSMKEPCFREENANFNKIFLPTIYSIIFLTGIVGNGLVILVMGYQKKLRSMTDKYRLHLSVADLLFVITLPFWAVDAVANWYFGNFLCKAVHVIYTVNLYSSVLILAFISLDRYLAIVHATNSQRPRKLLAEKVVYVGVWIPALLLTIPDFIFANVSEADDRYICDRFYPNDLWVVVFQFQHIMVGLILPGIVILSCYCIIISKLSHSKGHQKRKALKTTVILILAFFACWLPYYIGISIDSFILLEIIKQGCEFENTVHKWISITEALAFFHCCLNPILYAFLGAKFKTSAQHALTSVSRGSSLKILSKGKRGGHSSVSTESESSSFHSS

In the case of “rat SDF-1 (stromal-derived factor-1) (ligand)”, the increase in trafficking of CD34+ human angioblasts to ischemic rat myocardium, with co-administered mAb against human CXCR4 was 24% and the increase in trafficking of CD34+ human angioblasts to ischemic rat myocardium, with co-administered mAb against rat SDF-1 stood at 17%.
